From KR20180112916A (dated 2018)

Biological target: T1, B-세포 에피토프 펩타이드 Myc362 (human)
T1 construct: Synthetic peptide of over 90% purity, coated on the ELISA plate at 5 ug/ml; also called Myc362 펩타이드
Assay: ELISA; Myc362 peptide coated at 5 ug/ml, antibody in serial dilution, HRP anti-IgG detection

T1 sequence (peptide, as listed by the source): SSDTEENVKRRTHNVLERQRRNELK

B1: 2E2F12 단클론 항체 (anti-Myc362 펩타이드-특이적인 단클론 항체) (antibody, V domains shown)
VH: EVQLQESGTELVKPGASVKLSCKASGYTFTSYWMHWVKLRPGQGFEWIGEINPSSGGTNYNENFKRKATLTVDRSSSTAYMQLSSLTSEDSAVYYCTIHRSYWGQGTTLTVSS
VL: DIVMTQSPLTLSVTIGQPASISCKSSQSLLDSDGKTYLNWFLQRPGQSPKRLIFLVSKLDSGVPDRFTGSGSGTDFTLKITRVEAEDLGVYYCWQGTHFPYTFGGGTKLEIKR
notes: also called 2E2F12 클론; anti-c-Myc 단클론 항체
Kd: ~37 nM
